Data on three molecules can be found in PMC2635920 (Nature structural & molecular biology, 2009).

Sequences and labels used below:
B1: Dsl1ΔC (Dsl1p residues 1-361) (domain or fragment, S. cerevisiae, UniProt P53847 1-361, looked up)
chain: MESLFPNKGEIIRELLKDPLILKNDSKRSNGSELELDSSDLLQREAILANELNILDNLKTFLNLIKEVKTNLNILELENCYYSLQSLRKKMRNNAAYLKQSFNFQQSISTYVDTLHLELVSTLYKILTNGFWKITENSIQFTPTVEWGKDKVHIEYDTFMDFVAQQYFPKGSLDNQAWFILDMTSADSQEQVRAKLNTIMKEYMNLSRIVSMIKNSIFISGKEISYENEKNILVFSKSSSHGQHCVSTVLTSFEAVCDFMLDGLAFRDRKTLSYELGPLFNTEFTKFVKNNASIILESLDSPLKNLVSVINNKLTRLVAKSEVTNWTHSGKEIQDLLMNKQLYYNLLLDKVLESHISEIRS

Assay [1] has as its target T1, Tip20p, full-length (residues 1-701) (S. cerevisiae, UniProt P33891 1-701).
T1 sequence (looked up): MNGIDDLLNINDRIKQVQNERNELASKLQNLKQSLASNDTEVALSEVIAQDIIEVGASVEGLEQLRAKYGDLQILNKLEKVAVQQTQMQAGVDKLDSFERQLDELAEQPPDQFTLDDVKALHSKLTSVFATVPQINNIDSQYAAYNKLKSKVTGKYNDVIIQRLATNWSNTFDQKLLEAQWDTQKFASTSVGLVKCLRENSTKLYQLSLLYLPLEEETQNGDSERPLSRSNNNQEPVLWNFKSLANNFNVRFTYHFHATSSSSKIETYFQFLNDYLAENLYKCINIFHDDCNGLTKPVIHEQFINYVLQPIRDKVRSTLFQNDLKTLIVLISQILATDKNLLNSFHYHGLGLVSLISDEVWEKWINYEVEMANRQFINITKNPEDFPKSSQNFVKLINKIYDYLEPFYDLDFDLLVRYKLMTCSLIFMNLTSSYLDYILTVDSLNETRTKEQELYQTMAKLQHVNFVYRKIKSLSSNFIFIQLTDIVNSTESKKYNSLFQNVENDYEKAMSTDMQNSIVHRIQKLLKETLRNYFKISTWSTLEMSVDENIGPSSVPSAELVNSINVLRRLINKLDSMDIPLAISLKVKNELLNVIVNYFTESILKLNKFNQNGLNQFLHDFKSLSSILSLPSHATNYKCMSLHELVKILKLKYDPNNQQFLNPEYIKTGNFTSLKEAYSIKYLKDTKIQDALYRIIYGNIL
Nature of the assay: AUC.

Assay [2] concerns the target B1. Description: pull-down.
Assay [3] has as its target T1, Tip20p, full-length (residues 1-701). Nature of the assay: SEC.
The target of assay [4] is intact Dsl1p complex (Tip20p-Dsl1p-Sec39p) (S. cerevisiae, UniProt P33891 1-701; P53847 1-754; Q12745 1-709). Description: SEC.
In assay [5] the target is T2, Tip20ΔN (Tip20p residues 82-701) (S. cerevisiae, UniProt P33891 82-701).
T2 sequence (looked up): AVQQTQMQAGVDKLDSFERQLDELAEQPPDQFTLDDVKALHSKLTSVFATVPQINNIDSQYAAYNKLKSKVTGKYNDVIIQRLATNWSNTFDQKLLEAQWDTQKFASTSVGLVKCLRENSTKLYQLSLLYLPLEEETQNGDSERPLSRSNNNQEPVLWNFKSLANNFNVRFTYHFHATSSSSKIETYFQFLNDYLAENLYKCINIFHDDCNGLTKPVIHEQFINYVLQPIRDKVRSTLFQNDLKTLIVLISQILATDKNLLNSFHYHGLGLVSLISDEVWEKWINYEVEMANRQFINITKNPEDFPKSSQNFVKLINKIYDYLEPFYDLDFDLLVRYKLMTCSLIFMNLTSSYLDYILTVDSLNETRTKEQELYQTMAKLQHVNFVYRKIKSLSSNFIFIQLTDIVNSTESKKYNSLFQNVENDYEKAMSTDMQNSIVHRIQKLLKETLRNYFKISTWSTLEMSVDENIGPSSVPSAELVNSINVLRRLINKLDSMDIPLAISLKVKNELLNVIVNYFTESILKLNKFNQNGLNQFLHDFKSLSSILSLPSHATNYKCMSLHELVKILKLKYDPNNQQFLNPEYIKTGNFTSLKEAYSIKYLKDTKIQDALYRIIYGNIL
Nature of the assay: SEC. In general terms: Size exclusion chromatography separates by hydrodynamic size, large species first.

Sequence of intact Dsl1p complex (Tip20p-Dsl1p-Sec39p) (Q12745 whole entry, the tested form may be a part, one chain of several): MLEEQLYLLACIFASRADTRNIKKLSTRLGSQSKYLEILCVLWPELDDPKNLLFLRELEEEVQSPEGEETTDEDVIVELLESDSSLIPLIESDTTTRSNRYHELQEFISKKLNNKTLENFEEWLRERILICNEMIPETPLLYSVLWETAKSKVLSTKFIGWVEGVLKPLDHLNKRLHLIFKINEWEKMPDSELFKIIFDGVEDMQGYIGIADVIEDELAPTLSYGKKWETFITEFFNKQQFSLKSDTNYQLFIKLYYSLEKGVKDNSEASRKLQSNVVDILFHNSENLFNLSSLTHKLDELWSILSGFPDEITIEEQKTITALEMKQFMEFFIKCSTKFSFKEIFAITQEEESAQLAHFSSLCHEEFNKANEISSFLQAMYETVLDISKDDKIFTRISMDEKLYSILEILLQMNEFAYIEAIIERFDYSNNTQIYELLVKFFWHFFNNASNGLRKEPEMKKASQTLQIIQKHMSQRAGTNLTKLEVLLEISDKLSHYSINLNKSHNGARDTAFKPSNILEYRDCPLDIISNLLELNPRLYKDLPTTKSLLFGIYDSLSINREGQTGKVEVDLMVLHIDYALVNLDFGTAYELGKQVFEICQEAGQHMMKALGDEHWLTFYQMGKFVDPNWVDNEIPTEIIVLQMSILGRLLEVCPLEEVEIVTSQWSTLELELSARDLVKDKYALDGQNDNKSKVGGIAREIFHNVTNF

What is called stoichiometry N is a count of units in the complex or per binding partner. B1: the “stoichiometry N” value in assay [1] was determined as 1.

B2: GST-Tip20p (residues 1-43) (domain or fragment, S. cerevisiae, UniProt P33891 1-43, looked up)
chain: MNGIDDLLNINDRIKQVQNERNELASKLQNLKQSLASNDTEVA
Consider B2, for which the binding result in assay [2] was “binds”.

B3: Sec20ΔC (cytoplasmic domain of Sec20p, residues 1-275) (domain or fragment, S. cerevisiae, UniProt P28791 1-275, looked up)
chain: MVVTFLQDLEVLQDALLNNLQKLSAISRRKESGESKHDNKDSFAAIANEHNDEEEEIEFEDLVNIIESKVSDFESVLKCSIVEMTYKYPELKLQWEKSPRYDQCDKLHIVKLDKQMNEDIYAQLVEELDFVLQFVDWFYCYRLKVKEILRQHHKRDLAWNDEKRDRAIKFHAVDYDKLHQGTSSSSSLTSTSMEKASTREKLLSKTKQLTNNLVRGNQILQSGILQSDLNLDELRAQTNSLTQIDDKYTQFETVFKKTADLVKVLENASHQEKRD
On to B3, for which the binding result in assay [3], in assay [4] and in assay [5] was “binds” each time.
